From publication PMC10527347 (Journal of molecular biology, 2023)
Where two headings read alike, the source gives them in different places.

Legend:
[1] = biological target: T1, Hsp90Ec N347C (E. coli, UniProt P0A6Z3 1-624, N347C); assay: cross-linking
[2] = biological target: T2, Hsp90Ec K199C (E. coli, UniProt P0A6Z3 1-624, K199C); assay: cross-linking
[3] = biological target: T3, Hsp90Ec wild-type (E. coli, UniProt P0A6Z3 1-624); assay: cross-linking
[4] = biological target: Hsp90Ec K45C (E. coli, UniProt P0A6Z3 1-624, K45C); assay: cross-linking
[5] = biological target: Hsp90Ec K103C (E. coli, UniProt P0A6Z3 1-624, K103C); assay: cross-linking
[6] = biological target: Hsp90Ec K71C (E. coli, UniProt P0A6Z3 1-624, K71C); assay: cross-linking
[7] = biological target: Hsp90Ec K99C (E. coli, UniProt P0A6Z3 1-624, K99C); assay: cross-linking
[8] = biological target: T2, Hsp90Ec K199C; assay: cross-linking; remark: listed apart in the source
[9] = biological target: Hsp90Ec K354C (E. coli, UniProt P0A6Z3 1-624, K354C); assay: cross-linking
[10] = biological target: Hsp90Ec K238C (E. coli, UniProt P0A6Z3 1-624, K238C); assay: cross-linking
[11] = biological target: Hsp90Ec N347C/D80N (E. coli, UniProt P0A6Z3 1-624, N347C | D80N); assay: cross-linking
[12] = biological target: Hsp90Ec N350C (E. coli, UniProt P0A6Z3 1-624, N350C); assay: cross-linking
[13] = biological target: T1, Hsp90Ec N347C; assay: cross-linking; remark: listed apart in the source
[14] = biological target: the molecule itself; assay: cross-linking
[15] = biological target: T4, biotin-labeled Ydj1 (S. cerevisiae, UniProt P25491 1-409, biotin label (site not stated)); assay: pull-down
T4 sequence (looked up): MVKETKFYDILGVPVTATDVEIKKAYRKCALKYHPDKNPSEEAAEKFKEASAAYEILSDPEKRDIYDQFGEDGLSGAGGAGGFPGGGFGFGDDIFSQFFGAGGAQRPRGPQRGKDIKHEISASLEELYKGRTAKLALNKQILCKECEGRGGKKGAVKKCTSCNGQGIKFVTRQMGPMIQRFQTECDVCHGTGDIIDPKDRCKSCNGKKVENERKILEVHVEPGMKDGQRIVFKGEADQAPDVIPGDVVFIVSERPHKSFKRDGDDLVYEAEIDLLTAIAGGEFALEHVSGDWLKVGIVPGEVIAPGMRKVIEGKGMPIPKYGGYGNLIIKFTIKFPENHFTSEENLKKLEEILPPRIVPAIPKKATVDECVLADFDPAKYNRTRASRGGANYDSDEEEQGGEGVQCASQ

[16] = biological target: T3, Hsp90Ec wild-type; assay: BLI

B1: CbpA A44C (natural protein, E. coli, UniProt P36659 1-306, looked up)
chain: MELKDYYAIMGVKPTDDLKTIKTAYRRLARKYHPDVSKEPDAECRFKEVAEAWEVLSDEQRRAEYDQMWQHRNDPQFNRQFHHGDGQSFNAEDFDDIFSSIFGQHARQSRQRPATRGHDIEIEVAVFLEETLTEHKRTISYNLPVYNAFGMIEQEIPKTLNVKIPAGVGNGQRIRLKGQGTPGENGGPNGDLWLVIHIAPHPLFDIVGQDLEIVVPVSPWEAALGAKVTVPTLKESILLTIPPGSQAGQRLRVKGKGLVSKKQTGDLYAVLKIVMPPKPDENTAALWQQLADAQSSFDPRKDWGKA
binding result [1]: binds

B2: CbpA wild-type (natural protein, E. coli, UniProt P36659 1-306, looked up)
chain: MELKDYYAIMGVKPTDDLKTIKTAYRRLARKYHPDVSKEPDAEARFKEVAEAWEVLSDEQRRAEYDQMWQHRNDPQFNRQFHHGDGQSFNAEDFDDIFSSIFGQHARQSRQRPATRGHDIEIEVAVFLEETLTEHKRTISYNLPVYNAFGMIEQEIPKTLNVKIPAGVGNGQRIRLKGQGTPGENGGPNGDLWLVIHIAPHPLFDIVGQDLEIVVPVSPWEAALGAKVTVPTLKESILLTIPPGSQAGQRLRVKGKGLVSKKQTGDLYAVLKIVMPPKPDENTAALWQQLADAQSSFDPRKDWGKA
binding result [2]: binds
binding result [3]: binds

B3: CbpA S57C (natural protein, E. coli, UniProt P36659 1-306, looked up)
chain: MELKDYYAIMGVKPTDDLKTIKTAYRRLARKYHPDVSKEPDAEARFKEVAEAWEVLCDEQRRAEYDQMWQHRNDPQFNRQFHHGDGQSFNAEDFDDIFSSIFGQHARQSRQRPATRGHDIEIEVAVFLEETLTEHKRTISYNLPVYNAFGMIEQEIPKTLNVKIPAGVGNGQRIRLKGQGTPGENGGPNGDLWLVIHIAPHPLFDIVGQDLEIVVPVSPWEAALGAKVTVPTLKESILLTIPPGSQAGQRLRVKGKGLVSKKQTGDLYAVLKIVMPPKPDENTAALWQQLADAQSSFDPRKDWGKA
binding result [1]: binds

B4: CbpA K22C (natural protein, E. coli, UniProt P36659 1-306, looked up)
chain: MELKDYYAIMGVKPTDDLKTICTAYRRLARKYHPDVSKEPDAEARFKEVAEAWEVLSDEQRRAEYDQMWQHRNDPQFNRQFHHGDGQSFNAEDFDDIFSSIFGQHARQSRQRPATRGHDIEIEVAVFLEETLTEHKRTISYNLPVYNAFGMIEQEIPKTLNVKIPAGVGNGQRIRLKGQGTPGENGGPNGDLWLVIHIAPHPLFDIVGQDLEIVVPVSPWEAALGAKVTVPTLKESILLTIPPGSQAGQRLRVKGKGLVSKKQTGDLYAVLKIVMPPKPDENTAALWQQLADAQSSFDPRKDWGKA
binding result [1]: binds
binding result [4]: binds
binding result [5]: binds
binding result [6]: binds
binding result [7]: binds
binding result [8]: binds
binding result [9]: binds
binding result [10]: binds

B5: CbpA E51C (natural protein, E. coli, UniProt P36659 1-306, looked up)
chain: MELKDYYAIMGVKPTDDLKTIKTAYRRLARKYHPDVSKEPDAEARFKEVACAWEVLSDEQRRAEYDQMWQHRNDPQFNRQFHHGDGQSFNAEDFDDIFSSIFGQHARQSRQRPATRGHDIEIEVAVFLEETLTEHKRTISYNLPVYNAFGMIEQEIPKTLNVKIPAGVGNGQRIRLKGQGTPGENGGPNGDLWLVIHIAPHPLFDIVGQDLEIVVPVSPWEAALGAKVTVPTLKESILLTIPPGSQAGQRLRVKGKGLVSKKQTGDLYAVLKIVMPPKPDENTAALWQQLADAQSSFDPRKDWGKA
binding result [2]: binds
binding result [11]: binds
binding result [12]: binds
binding result [13]: binds
binding result [14]: binds

B6: Hsp82 wild-type (natural protein)
chain: not shown
fold change in interaction, with L2 against without L2 [15]: ~2 fold

B7: biotin-labeled DnaJ (natural protein, E. coli, UniProt P08622 1-376, looked up)
chain: MAKQDYYEILGVSKTAEEREIRKAYKRLAMKYHPDRNQGDKEAEAKFKEIKEAYEVLTDSQKRAAYDQYGHAAFEQGGMGGGGFGGGADFSDIFGDVFGDIFGGGRGRQRAARGADLRYNMELTLEEAVRGVTKEIRIPTLEECDVCHGSGAKPGTQPQTCPTCHGSGQVQMRQGFFAVQQTCPHCQGRGTLIKDPCNKCHGHGRVERSKTLSVKIPAGVDTGDRIRLAGEGEAGEHGAPAGDLYVQVQVKQHPIFEREGNNLYCEVPINFAMAALGGEIEVPTLDGRVKLKVPGETQTGKLFRMRGKGVKSVRGGAQGDLLCRVVVETPVGLNERQKQLLQELQESFGGPTGEHNSPRSKSFFDGVKKFFDDLTR
modifications: biotin label (site not stated)
Kd [16]: 3.6 ± 0.3 µM
